The target of experiment [1] is T1, B(c)GFP, cyclic B component with C-terminal GFP (Di13BLB_C_GFP). The experiment is described as follows: stepwise array assembly on NIH/3T3 cells.
For experiment [2], the target named is T1, B(c)GFP, cyclic B component with …. The experiment can be described thus: calibrated microscope, corrected for FRET between GFP and mScarlet.
The target is the same in experiment [3]. The experiment can be described thus: quantitative fluorescence microscopy of preformed arrays.

B1: A component of design #13 (D3 homooligomer, designed from 1d2t) (designed binder)
chain: MGHHHHHHGGLALVATGNDTTTKPDLYYLKNSEAINSLALLPPPPAVGSIAFLNDQAMYEQGRLLRNTERGKLAAEDANLSSGGVANAFSGAFGSPITEKDAPALHKLLTNMIEDAGDLATRSAKDHYMRIRPFAFYGVSTCNTTEQDKLSKNGSYPSGHTSIGWATALVLAEINPQRQNEILKRGYELGQSRVICGYHWQSDVDAARVVGSAVVATLHTNPEFQAQLIKAKIEFKQHQKEL
notes: also called component A; dihedral A
As to B1, the binding result in experiment [1] was “binds”.

B2: A(d)mScarlet, dihedral A component with N-terminal mScarlet (A_n_mScarlet) (designed binder)
chain: NKIHGSHHHHHHGSTSGSAMVSKGEAVIKEFMRFKVHMEGSMNGHEFEIEGEGEGRPYEGTQTAKLKVTKGGPLPFSWDILSPQFMYGSRAFTKHPADIPDYYKQSFPEGFKWERVMNFEDGGAVTVTQDTSLEDGTLIYKVKLRGTNFPPDGPVMQKKTMGWEASTERLYPEDGVLKGDIKMALRLKDGGRYLADFKTTYKAKKPVQMPGAYNVDRKLDITSHNEDYTVVEQYERSEGRHSTGGMDELYKGGSGGSLALVATGNDTTTKPDLYYLKNSEAINSLALLPPPPAVGSIAFLNDQAMYEQGRLLRNTERGKLAAEDANLSSGGVANAFSGAFGSPITEKDAPALHKLLTNMIEDAGDLATRSAKDHYMRIRPFAFYGVSTCNTTEQDKLSKNGSYPSGHTSIGWATALVLAEINPQRQNEILKRGYELGQSRVICGYHWQSDVDAARVVGSAVVATLHTNPEFQAQLIKAKIEFKQHQK
notes: also called AmScarlet
With B2, the “A/B ratio of arrays generated on cells” value in experiment [2] was 0.99. Further, the “mScarlet/GFP fluorescence ratio (arrays formed in vitro)” value in experiment [3] stood at 1.45.

For the origin of these results see patent US20230287402A1 (University of Washington, published 2023).
